Source: patent publication US20180312557A1, “Leg1 Protein, Leg1 Gene, and Uses and Drugs thereof” (ZHEJIANG UNIVERSITY, priority 2016, published 2018)

Columns and labels:
[1] = tested on: Akt phosphorylation in the liver; test: Liver Akt phosphorylation after intragastric administration of mLeg1; format: in vivo, mouse
Procedure: (§1) 22.1 The column chromatography partially purified mLeg1 protein was intragastrically administered to the mLeg1^Δ/Δ mice at 50 ng of mLeg1 per gram of body weight of the mice.
(§2) 22.2 The mice were sacrificed at different time points (0, 10, 20, 40, 60 min) after intragastric administration and liver samples were collected, an immunoprecipitation experiment was conducted to pull down mLeg1 protein (if there is any) and its interacting protein in the liver by using mLeg1 antibodies Reference may be made to steps 21.2-21.5.
This may result from the fact that mLeg1 binds with EGFR rapidly, and transmitted downstream signals rapidly, as in in vitro experiments, mLeg1 can activate EGFR within 1 minute and the phosphorylation level of EGFR began to decrease within 3 minutes. Further, the inventors of the present disclosure also detected the activation of such intragastrically administered mLeg1 protein on downstream Akt. […] According to the above results, mLeg1 secreted from the salivary glands can be transferred into the liver and activates EGFR in the liver, thereby activating Akt to finally regulate the physiological functions of the liver cells.

EGFR [2] = molecular target: T1, EGFR (Homo sapiens, UniProt P00533); test: Phospho-RTK array and EGFR phosphorylation specific antibody, HepG2 cells: EGFR; format: cell-based
T1 construct: endogenous in cells; host or cells: HepG2
Procedure: 19.1 The screening of receptor tyrosine kinase was performed by a RTK assay kit (Proteome Profiler Human Phospho-RTK Array Kit, R&D Cat. no. ARY001B) according to the manufacturer's instruction. The kit can detect 49 of 58 RTKs in total. The operation steps are summarized as follows: mLeg1 and a control were used to treat the cells (cells were grown in a 10 cm petri dish) separately, and then 500 μl of lysis buffer17 was used to lyse the cells; the RTK screening membrane was blocked for 1 hour using Assay buffer1 and then coated with a cell lysate for binding overnight, the resultant product was washed three times with 1× Wash Buffer, 10 minutes each time, then added with Anti-Phospho-Tyrosine-HRP Detection Antibody diluted with 1× Array Buffer2 at the ratio of 1:5000 for incubation at room temperature for 2 hours; followed by washing 3 times with 1× Wash Buffer, 10 minutes each time, then applied with Chemi Reagent Mix and developed, and finally imaged in a fluorescent chemiluminescent imager (Clinx Science Instruments Cat. No. 3400) with the signals recorded.
Further, the inventors of the present disclosure detected the impact of mLeg1 on intracellular EGFR activation level by an EGFR phosphorylation specific antibody.

EGFR [3] = molecular target: T2, EGFR (Mus musculus, UniProt Q01279); test: EGFR interacting with mLeg1 in liver after intragastric administration (co-immunoprecipitation); format: in vivo
T2 construct: from tissue; host or cells: liver of mLeg1^Δ/Δ mice
Procedure: as §1, §2

[4] = mLeg1 protein in liver of mLeg1Δ/Δ mice after intragastric administration (immunoprecipitation); format: in vivo, mouse
Procedure: as §1, §2

[5] = tested on: intracellular tyrosine phosphorylation in HepG2 cells; test: Total intracellular tyrosine phosphorylation in HepG2 cells (antibody 4G10); format: cell-based, human; details: HepG2, partially purified mLeg1 vs no addition
Procedure: 18.1 Partially purified mLeg1 was added to the HepG2 cell medium to culture the HepG2 cells, and then total protein was extracted.
18.2 The phosphorylation level of the total intracellular tyrosine was detected through the tyrosine phosphorylation antibody 4G10 (Millipore, 05-321).

EGFR [6] = molecular target: T1, EGFR; test: Effect of EGFR inhibitor on mLeg1-induced Akt and EGFR phosphorylation in HepG2 cells; format: cell-based; details: HepG2, 15 minutes
Text: 20.1 Culture of the HepG2 cell: reference may be made to step 18.1 for details.

EGFR [7] = molecular target: T2, EGFR; test: Co-immunoprecipitation of mLeg1 and EGFR in cells isolated from liver homogenate; format: binding; details: liver cells incubated at 4° C. with crosslinking agent DSP
Procedure: Since the reaction of mLeg1 activating EGFR is very short and the EGFR will be degraded soon after being activated, the inventors of the present disclosure used mLeg1 to incubate the liver cells at 4° C., and simultaneously added a crosslinking agent DSP thereto to stabilize the interaction between mLeg1 and its potential interacting protein, and then washed mLeg1 and lysed the liver cells using NP40 lysate for co-immunoprecipitation. The experimental method was as follows.
21.1 Antibody crosslinking: 30 μl of proteinA/G (beyotime Cat. No. P2012) was centrifuged at a low speed (500-1000 g) to remove the supernatant, and then washed twice using 4° C. pre-chilled PBS, then added with mLeg1 antibody (20 μg of antibody were dissolved in 1×100 μl PBS) for incubation at room temperature for 30 minutes, and then centrifuged to remove the supernatant. The beads were washed three times with 300 μl of PBS, then incubated with 50 μl of DSS solution (5 μl 10×PBS, 36 μl H2O, 9 μl 2.5 mM DSS (Thermo, Cat. NO. 21655)) for 50 minutes at room temperature. After centrifugation to remove supernatant, the beads were washed three times with 50 μl of 100 mM pH 2.2 glycine, washed twice with 300 μl of PBS containing 1% NP40, and finally washed once with 300 μl of PBS. […]
21.5 The protein pulled down by the mLeg1 antibody was detected by Western blot.

B1: mLeg1 protein: mouse secretory protein (SEQ ID NO: 2) encoded by mLeg1 gene, partially purified from salivary glands by column chromatography (protein, listed as Mus musculus)
chain: MAVLASWVWVLAGCFCAAVAEVSDSSDPYPPLWEDSPEQLSDYMMEDGNYIINPWVYTDRMGMYRILLEETAMYFAKYGPENEQNLLWGLPLQFGWQYQSGRLADPTGMTDCGNELNESLCVSVDSWWADINYYLSVIPFLAAVDSGITGISPNQITILPPPKDQMRFCYNVSDCQSAVPGTMNRWRDFFQYMQLNSSDFDGLLNYLWEAHASSLDYPTSAFGDRYNFYSEKEANFEENWAIAVNYLAAARLPTTQNRTYSFQRGLPPRVLVDTDIAPFIPDFTPLQNEVLVSLKLLGDTDRNSGSLSLTLWENLMSTKLARTLFLKAFEEFLATSS
modifications: partially purified
Question: For B1, which “Akt phosphorylation in the liver” value ([1]; 10 minutes after intragastric administration) is on record?
Answer: increased

Question: What about the “Akt phosphorylation in the liver” value ([1]; 40 minutes to 60 minutes after intragastric administration) of the same molecule?
Answer: more significant

Question: And the “intracellular EGFR activation level” value (EGFR [2]; EGFR phosphorylation specific antibody)?
Answer: could activate the EGFR very rapidly

Question: And the “tyrosine phosphorylation in EGFR” value (EGFR [2]; HepG2, Phospho-RTK array)?
Answer: increases significantly

Question: And the “time within which EGFR is activated” value (EGFR [2]; in vitro experiments)?
Answer: ≤ 1 min

Question: And the “time within which the phosphorylation level of EGFR began to decrease” value (EGFR [2]; in vitro experiments)?
Answer: ≤ 3 min

Question: What about the “time at which the amount of EGFR that interacts with mLeg1 reached the maximum” value (EGFR [3]) of the same molecule?
Answer: 10 min

Question: What about the “mLeg1 in the liver” value ([4]; 40 minutes and 60 minutes after intragastric administration) of the same molecule?
Answer: decreased

Question: What about the “time at which the amount of mLeg1 protein in the liver reached the maximum value” ([4]; mLeg1Δ/Δ mice, 50 ng per gram of body weight, intragastric) of the same molecule?
Answer: 20 min

Question: And the “phosphorylation level of the intracellular tyrosine” value [5]?
Answer: far higher than that of the control group

Question: What about the EGFR phosphorylation (EGFR [6]; mLeg1 treatment) of the same molecule?
Answer: induced EGFR phosphorylation

Question: What about the Akt phosphorylation (EGFR [6]; partially purified mLeg1 vs BSA control) of the same molecule?
Answer: could be induced

Question: And the “interaction with EGFR (pull-down by mLeg1 antibody)” value (EGFR [7])?
Answer: EGFR could be co-precipitated
